# Test results as given in US20120315270A1.
# Tests used:
# [1] = molecular target: RSV F glycoprotein on GFP-expressing RSV (respiratory syncytial virus) (UniProt P03420)
# [2] = molecular target: RSV F0 Fd (respiratory syncytial virus, strain A2) (UniProt P03420); experiment: densitometry of SDS-PAGE of the gel filtration complex peak
Substance,"EC50 (read off the curve), neutralization of GFP-expressing RSV on HEp-2 cells, flow cytometry [1]",Fabs per trimer (Fabs per trimer) [2]
SYNAGIS® IgG (palivizumab) (antibody),0.5 nM,
palivizumab Fab,,2.97
